Assay results as given in patent publication US20240239878A1 (SHANGHAI QILU PHARMACEUTICAL RESEARCH AND DEVELOPMENT CENTRE, published 2024).
Read-outs that look alike come from different tables or passages of the source.

B1: H-46A5A4 mouse hybridoma-derived humanized anti-DLL3 antibody (antibody, V domains shown)
VH: QVQLVQSGAEVKKPGASVKVSCKASGYTFTDHTIHWVRQAPGQGLEWMGYIYPRDGYTMYNEKFKGRVTMTRDTSTSTVYMELSSLRSEDTAVYYCARAFHALDYWGQGTLVTVSS
VL: DIQMTQSPSSLSASVGDRVTITCSASQGISNYLNWYQQKPGKAPKLLIYYTSSLHSGVPSRFSGSGSGTDFTFTISSLQPEDIATYYCQQYSKLPYTFGGGTKLEIK
B2: DLL3-12 camelid-derived anti-DLL3 chimeric antibody (antibody, human IgG1, V domains shown)
VH: QVQLVESGGGLVQPGESLRLSCAGSGFAFSSYDMHWVRQAPGKDFEWVSSISRDGRGPRYADFVKGRFTISKDNGRNMLYLQLNSLEIEDTAMYYCSKGYPIMGGTTQGTQVTVSS
B3: DLL3-276 camelid-derived anti-DLL3 chimeric antibody (antibody, human IgG1, V domains shown)
VH: QVQLVESGGGSVQAGGSLNLSCATSGSTASTTYMGWFRQAPGKGREGVAIIYTARDNPWYANSVKGRFIISQDNAKKTLYLQMNTLKPEDTATYYCAATLANPTRTAWGQGTLVTVSS

How the values were obtained:
[1] = molecular target: T1, human DLL3 on SHP-77 cells (human, UniProt Q9NYJ7 27-618); experiment: flow cytometry, SHP-77 cells
T1 construct: also called DLL3-expressing cells (SHP-77)
T1 sequence: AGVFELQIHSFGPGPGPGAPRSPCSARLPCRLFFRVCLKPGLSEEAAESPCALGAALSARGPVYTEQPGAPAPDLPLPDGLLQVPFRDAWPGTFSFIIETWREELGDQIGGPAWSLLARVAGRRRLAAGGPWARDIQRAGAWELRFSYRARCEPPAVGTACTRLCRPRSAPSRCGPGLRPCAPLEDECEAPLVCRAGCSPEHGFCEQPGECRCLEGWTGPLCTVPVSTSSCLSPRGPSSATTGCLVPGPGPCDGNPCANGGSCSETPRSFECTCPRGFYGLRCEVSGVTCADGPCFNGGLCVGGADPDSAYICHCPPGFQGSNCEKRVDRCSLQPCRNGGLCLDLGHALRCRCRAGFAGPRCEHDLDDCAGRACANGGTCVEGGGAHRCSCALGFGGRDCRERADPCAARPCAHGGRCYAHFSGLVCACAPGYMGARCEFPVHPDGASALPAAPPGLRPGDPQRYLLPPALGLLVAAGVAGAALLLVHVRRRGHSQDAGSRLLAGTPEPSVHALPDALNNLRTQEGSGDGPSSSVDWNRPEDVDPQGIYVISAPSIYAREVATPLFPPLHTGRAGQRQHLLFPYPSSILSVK
Protocol: SHP-77 cells were cultured. The culture medium for SHP-77 cells was RPMI1640+10% FBS. The cells were cultured in a T75 cell culture flask at a 37° C. 5% CO₂ incubator. When using cells, they are washed with sterile DPBS, digested with 0.25% trypsin EDTA for about 5 minutes, and then stopped with a complete medium.
(§1) The digested cells were centrifuged at 1000 rpm for 5 min at room temperature. The supernatant was discarded and the cells were resuspended in 100 μL of 1% BSA (in PBS). The cells were counted and adjusted to a cell density of 1E6/m. The dilute cells were plated in a 96-well round-bottom culture plate (corning 3799), and centrifuged at 1500 rpm for 5 min at 4° C. The supernatant was discarded and the cells were stored at 4° C. until use. Antibody samples to be tested were diluted with 1% BSA (in PBS) at a starting concentration of 100 nM, downwards by a 10-fold gradient for 7 concentrations. The cells were resuspended with the diluted antibody at 100 μL/well and incubated for 1 hour at 4° C. The cells were centrifuged at 1500 rpm for 5 minutes at 4° C. and the supernatant was discarded. The cells were resuspended and washed with 160 μL of 1% BSA (in PBS), centrifuged at 1500 rpm for 5 minutes at 4° C. The supernatant was discarded. The secondary antibody (goat anti human IgG Fc PE) was diluted 1:200 with 1% BSA (in PBS) according to the manufacturer's instructions and the cells were resuspended with the diluted secondary antibody, 100 µL/well, and incubated for 0.5 h at 4° C. The cells were centrifuged at 1500 rpm for 5 minutes at 4° C. and the supernatant was discarded. The cells were resuspended and washed with 160 μL of 1% BSA (in PBS), centrifuged at 1500 rpm for 5 minutes at 4° C. The supernatant was discarded. The cells were resuspended in 100 μL of 1% BSA (in PBS), and filtered across a 300 mesh gauze. The mean fluorescence intensity of the PE channels was measured by flow cytometry.
(§2) The analyzed mean fluorescence intensity was imported into Graphpad to analyze the median-binding concentration (hereinafter referred to as EC50) of antibody and cell and the top mean fluorescence intensity (Top MFI).

[2] = molecular target: T2, human DLL3 antigen protein (Kactus Biosystems, Cat. No. DLL-HM103) (human, UniProt Q9NYJ7 27-492); experiment: SPR (Biacore 8K), antibody captured on anti-human Fc, DLL3 in solution
T2 sequence: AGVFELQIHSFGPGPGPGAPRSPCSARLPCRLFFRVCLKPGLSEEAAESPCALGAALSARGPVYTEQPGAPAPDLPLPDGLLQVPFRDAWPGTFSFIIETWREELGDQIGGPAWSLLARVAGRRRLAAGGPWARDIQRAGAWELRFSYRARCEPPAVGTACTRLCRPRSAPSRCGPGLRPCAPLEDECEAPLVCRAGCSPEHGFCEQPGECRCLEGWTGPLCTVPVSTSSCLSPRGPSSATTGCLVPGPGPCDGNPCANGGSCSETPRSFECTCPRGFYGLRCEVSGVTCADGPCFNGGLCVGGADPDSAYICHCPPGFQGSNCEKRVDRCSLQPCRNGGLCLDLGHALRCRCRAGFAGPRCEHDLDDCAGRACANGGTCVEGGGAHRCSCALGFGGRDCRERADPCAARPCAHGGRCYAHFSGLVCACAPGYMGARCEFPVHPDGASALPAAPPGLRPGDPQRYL
Protocol: The affinity and kinetic properties of the humanized anti-DLL3 antibody to human DLL3 were analyzed using a Biacore 8K instrument. CM5 chips were activated with EDC and NHS, followed by immobilization of anti-human Fc murine mAb and blocked with ethanolamine.
Human DLL3 was diluted two-fold serially to serial concentrations (100 nM-0.39 nM) and associated for 90 s and dissociated for 600 s at a flow rate of 50 μL/min.
After completion of each round of the experiment, the captured antibody was removed together with the antigen by washing with a 3M MgCl₂ solution at a flow rate of 30 μL/min for 30 s to complete the regeneration of the chip. The raw data were analyzed using Biacore Insight Evaluation Software (3.0.12.15655) software and fitted with a (1:1) Langmuir model with.

[3] = molecular target: T1, human DLL3 on SHP-77 cells; experiment: flow cytometry, SHP-77 cells; remark: listed apart in the source
Protocol: (§3) Monoclonal selection was performed, and the expression level of DLL3 protein in the monoclonal cells were identified by flow cytometry. The culture was expanded and stored in storage for later use. SHP-77 and HEK293-cyno DLL3 cells were cultured. The culture medium for SHP-77 cells were RPMI1640+10% FBS, and the culture medium for HEK293 cyno DLL3 cells were DMEM+10% FBS+200 μg/ml Hygromycin. The cells were cultured in a T75 cell culture flask at a 37° ° C. in a 5% CO₂ incubator. When using cells, they are washed with sterile DPBS, digested with 0.25% trypsin EDTA for about 5 minutes, and then stopped with a complete medium.
as §1, with “seeded” for “plated”, “antibody.” for “antibody,”, “μL/well,” for “µL/well,”

[4] = molecular target: T1, human DLL3 on SHP-77 cells; experiment: flow cytometry, SHP-77 cells; remark: listed apart in the source
Protocol: (§4) SHP-77 and HEK293-cyno DLL3 cells were cultured. The culture medium for SHP-77 cells were RPMI1640+10% FBS, and the culture medium for HEK293 cyno DLL3 cells were DMEM+10% FBS+200 μg/ml Hygromycin. The cells were cultured in a T75 cell culture flask at a 37° C. 5% CO₂ incubator. When using cells, they are washed with sterile DPBS, digested with 0.25% trypsin EDTA for about 5 minutes, and then stopped with a complete medium.
as §1, with “seeded” for “plated”, “μL/well,” for “µL/well,”
as §2

[5] = molecular target: T3, Cynomolgus monkey DLL3 on HEK293 cells (HEK293-cyno DLL3) (Cynomolgus monkey, UniProt Q9NYJ7 27-618 (human entry)); experiment: flow cytometry, HEK293-cyno DLL3 cells
T3 chain: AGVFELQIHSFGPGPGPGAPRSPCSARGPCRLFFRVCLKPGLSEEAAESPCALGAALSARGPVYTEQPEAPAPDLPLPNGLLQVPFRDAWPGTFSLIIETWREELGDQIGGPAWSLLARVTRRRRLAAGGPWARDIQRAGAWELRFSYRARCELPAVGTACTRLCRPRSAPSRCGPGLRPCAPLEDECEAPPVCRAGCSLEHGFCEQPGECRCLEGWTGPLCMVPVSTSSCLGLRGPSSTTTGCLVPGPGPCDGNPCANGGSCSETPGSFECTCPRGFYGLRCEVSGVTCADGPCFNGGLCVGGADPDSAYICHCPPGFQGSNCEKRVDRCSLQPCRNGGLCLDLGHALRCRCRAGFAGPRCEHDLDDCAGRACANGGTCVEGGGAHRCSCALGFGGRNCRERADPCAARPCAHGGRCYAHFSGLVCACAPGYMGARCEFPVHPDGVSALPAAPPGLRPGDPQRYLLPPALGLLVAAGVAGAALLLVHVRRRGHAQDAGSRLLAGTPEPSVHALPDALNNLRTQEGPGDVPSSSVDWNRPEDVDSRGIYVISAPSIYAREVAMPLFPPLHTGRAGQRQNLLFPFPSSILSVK
Protocol: as §3
as §1, with “seeded” for “plated”, “antibody.” for “antibody,”, “μL/well,” for “µL/well,”

[6] = molecular target: T3, Cynomolgus monkey DLL3 on HEK293 cells …; experiment: flow cytometry, HEK293-cyno DLL3 cells
Protocol: as §4
as §1, with “seeded” for “plated”, “μL/well,” for “µL/well,”
as §2

Binder | EC50 [1] [pM] | Top MFI [1] [MFI] | Kd [2] [pM] | koff [2] [s⁻¹] | kon [2] [M⁻¹ s⁻¹] | EC50 [3] [pM] | Top MFI [3] [MFI] | EC50 [4] [pM] | Top MFI [4] [MFI] | EC50 [5] [pM] | Top MFI [5] [MFI] | EC50 [6] [pM] | Top MFI [6] [MFI]
B1 | 1350 | 1520 | 811 | 0.000178 | 219000 | – | – | – | – | – | – | – | –
B2 | – | – | – | – | – | 92 | 886 | 114 | 935 | 73 | 220 | 1380 | 232
B3 | – | – | – | – | – | 374 | 763 | 396 | 782 | 897 | 175 | 2080 | 179
